Patent US20240190946A1 (AUGMENTA BIOWORKS, published 2024)
Positions count from the first letter of the chain named.

Assays:
[1] = target: SARS-COV-2 spike (1+2) protein on pseudotyped lentivirus (SARS-COV-2, UniProt P0DTC2 14-1273); assay: cell-based or functional assay
[2] = target: T1, Sino CoV2 S2 (spike protein 2) (SARS-COV-2, UniProt P0DTC2 686-1213); assay: Carterra LSA; Carterra LSA
T1 construct: domain: S2 (spike protein 2)

[3] = target: T2, Sino CoV2 RBD (Receptor Binding Domain) (SARS-COV-2, UniProt P0DTC2 319-541); assay: Carterra LSA; Carterra LSA
[4] = target: T2, Sino CoV2 RBD (Receptor Binding Domain); assay: ForteBio; ForteBio
[5] = target: T3, Sino SARS1 S1 (SARS1, UniProt P59594 14-667); assay: Carterra LSA
T3 construct: domain: S1

[6] = target: T2, Sino CoV2 RBD (Receptor Binding Domain); assay: Carterra LSA
[7] = target: T1, Sino CoV2 S2 (spike protein 2); assay: ForteBio; ForteBio
[8] = target: T4, NAC CoV2 S1 (SARS-COV-2, UniProt P0DTC2 14-674); assay: instrument not stated
T4 construct: domain: S1

[9] = target: T2, Sino CoV2 RBD (Receptor Binding Domain); assay: instrument not stated
[10] = target: T1, Sino CoV2 S2 (spike protein 2); assay: Carterra LSA

B1: anti-SARS-COV-2 (SC2) antibody 3417 (antibody, V domains shown)
VH: QVQLQESGPGLLKPSQTLSLTCTVSGVSIRNSNYFWNWIRRPAGKGLEWIGRMHSGGTTNYNPSLKSRVTVSSDAARNQFSLELTSVTAADTAVYYCARDDPLNRFAAFQIWGRGTLVTVSS
VL: QSVLTQPPSVSAAPGQKVTISCSGSSSNIGNKYISWYQQLPGTAPKLLIYDNNKRPSGIPDRFSGSKSGTSATLGITGLQTGDEADYYCGTWDSSLSVFYVFGTGTKVTVLG
notes: also called SC2 Ab 3417
neutralization of infection of HEK293 cells by spike-pseudotyped lentivirus [1]: ~70% | Kd [2]: 63 nM | Kd [3]: 7.2 nM | Kd [4]: < 0.001 nM

B2: SC2 antibody 3969 (antibody, V domains shown)
VH: QVQLVESGGGVVQPGRSLRLSCAASGFTFSSYGMHWVRQAPGKGLEWVAVISYDGSNKYYADSVKGRFTISRDNSKNTLYLQMNSLRAEDTAVYYCAKGVGDYAVWGQGTLVTVSS
VL: QSALTQPASVSGSPGQSITISCTGTNSDIGGYDYVSWYQQHPGKAPKLMIFDVNNRPSGVSNRFSGSKSGNTASLTISELQSADEADYFCSSFSTRNSLVVFGGGTKLTVL
notes: also called Anti-SARS-COV-2 antibody 3969
Kd [5]: 28 nM | Kd [6]: 105 nM

B3: SC2 antibody 3388 (antibody, V domains shown)
VH: QVQLVESGGGVVQPGRSLRLSCAASGFTFSSYAMHWVRQAPGKGLEWVAVISYDGSNKYYADSVKGRFTISRDNSKNTLYLQMNSLRAEDTAVYYCAREGNIVATISLDYWGQGTLVTVSS
VL: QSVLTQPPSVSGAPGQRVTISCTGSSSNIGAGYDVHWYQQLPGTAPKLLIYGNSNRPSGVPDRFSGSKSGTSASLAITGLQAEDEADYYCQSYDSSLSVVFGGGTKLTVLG
notes: also called Anti-SARS-COV-2 antibody 3388
Kd [2]: 10 nM

B4: SC2 antibody 3396 (antibody, V domains shown)
VH: GVQLVESGGGLVQPGRSLRVSCAASGFTFADYAMHWVRQAPGKGLEWVSGISWNSGNIAYADSVKGRFTISRDNAKNSLYLQMDSLRPDDTALYYCVKASTLYYYFYMDVWGKGTTVTVSS
VL: QSALTQPPSASGSPGQSVTISCTGTSSDVGGYDYVSWYQQHPGKAPKFMIYEVSKRPSGVPDRFSGSKSGNTASLTVSGLQAEDEADYYCCSYAGSNNYVFGTGTKVTVLG
notes: also called Anti-SARS-COV-2 antibody 3396
neutralization of infection of HEK293 cells by spike-pseudotyped lentivirus [1]: ~50% | Kd [7]: 122 nM | Kd [4]: 22 nM

B5: SC2 antibody 3908 (antibody, V domains shown)
VH: EVQLVESRGGLVQPGGSLRLSCAATGFTLSSFDMHWVRQATGKGLEWVSAIGTAGDTYYPGSVKGRFTISRENAKNSLYLQMNSLRAGDTAVYYCARGTWLRDYNFWSGYNYYFDYWGQGTLVTVSS
VL: B4 VL with D33I, F48L, M49I, C91S, G95D, T103S, K106R
notes: also called Anti-SARS-COV-2 antibody 3908
Kd [7]: 74 nM

B6: SC2 antibody 3387 (antibody, V domains shown)
VH: QVQLVQSGAEVMQVGASVKVSCKASGYTFTSYGISWVRQAPGQGLEWMGWINTYNGNTNYAQKLQGRVTMTTDTSTTTAYMELRSLRSDDTAVYYCARVAVGYCSGGSCYYFDYWGQGTLVTVSS
VL: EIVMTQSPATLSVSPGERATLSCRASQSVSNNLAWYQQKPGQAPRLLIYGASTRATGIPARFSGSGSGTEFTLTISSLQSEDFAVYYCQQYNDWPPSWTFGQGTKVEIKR
neutralization of infection of HEK293 cells by spike-pseudotyped lentivirus [1]: ~45%

B7: SC2 antibody 3705 (scFv)
scFv: LEIVMTQSPATLSVSPGERATLSCRASQSVSNNLAWYQQKPGQAPRLLIYGASTRATGIPARFSGSGSGTEFTLTISSLQSEDFAVYYCQQYNDWPPSWTFGQGTKVEIKGGGGSGGGGSGGGGSQVQLVQSGAEVMQVGASVKVSCKASGYTFTSYGISWVRQAPGQGLEWMGWINTYNGNTNYAQKLQGRVTMTTDTSTTTAYMELRSLRSDDTAVYYCARVAVGYCSGGSCYYFDYWGQGTLVTVSSGGGGSGGQHHHHHHGAEQKLISEEDLGSGKPIPNPLLGLDSTS
notes: also called Anti-SARS-COV-2 antibody 3705
neutralization of infection of HEK293 cells by spike-pseudotyped lentivirus [1]: 100% | Kd [8]: 57 nM | Kd [9]: 1.3 nM

B8: SC2 antibody 3947 (antibody, V domains shown)
VH: QLQLQESGSGLVKPSQTLSLTCAVSGGSVSSGGYSWSWIRQPPGKGLEWIGYIYDSGITSYNPSLKSRLTISIDRSKNQFSLGLSSVTAADTAVYYCARVRRNTSGSFSTGHFDYWGQGTLVTVSS
VL: QSVLTQPPSVSASPGQTVTISCSGSTSNIGGNYVSWYQHLPGTAPKLLIYDSNKRPSGIPDRFSGSKSGTSATLGITGLQTEDEADYYCGTWDYRLSGAVFGGGTKLTVL
notes: also called Anti-SARS-COV-2 antibody 3947
Kd [10]: 25 nM

B9: SC2 antibody 4083 (antibody, V domains shown)
VH: B8 VH
VL: QSVLTQPPSVSAVPGQKVTISCSGNNSNIGNNLVSWYQQLPGTAPKLLIYNNNRRPSGIPDRFSGSKSGTSATLGITGLQTGDEAAYYCAARDSSLSAVVFGGGTKLTVL
notes: also called Anti-SARS-COV-2 antibody 4083
Kd [10]: 41 nM
